According to patent US20100040606A1 (SYMPHOGEN A S, published 2010):

Legend:
[1] = target: T1, soluble recombinant G protein (amino acids 66-292 of the 18537 strain sequence) (RSV strain 18537 (subtype B), UniProt P20896 66-292); assay: SPR (Biacore 3000), Fab over immobilised recombinant antigen;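 note: antigen immobilised on CM5 chip at very low density (about 50 RU), rate constants fitted globally with a 1:1 Langmuir model, Fabs obtained by enzymatic cleavage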
T1 construct: also called G(B); recombinant protein G
T1 sequence: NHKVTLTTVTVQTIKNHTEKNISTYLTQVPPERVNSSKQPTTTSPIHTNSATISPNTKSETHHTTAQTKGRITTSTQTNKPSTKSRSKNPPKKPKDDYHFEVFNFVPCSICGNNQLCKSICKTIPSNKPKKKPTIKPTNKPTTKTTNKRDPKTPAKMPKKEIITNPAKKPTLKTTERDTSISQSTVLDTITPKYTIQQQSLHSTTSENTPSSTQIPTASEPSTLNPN

[2] = target: T2, recombinant human fractalkine (CX3CL1; R&D systems) (human, UniProt P78423 25-100); assay: ELISA
T2 sequence (looked up): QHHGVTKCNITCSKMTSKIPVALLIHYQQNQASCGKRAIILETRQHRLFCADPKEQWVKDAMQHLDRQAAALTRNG

[3] = target: RSV G protein (receptor-binding glycoprotein) (human respiratory syncytial virus, …); assay: cell-based or functional assay
[4] = target: RSV protein F (fusion glycoprotein), recombinant or purified (human respiratory syncytial virus, …, UniProt P03420 26-109; P03420 137-524); assay: cell-based or functional assay
Sequence of RSV protein F (fusion glycoprotein), recombinant or purified (P03420 26-109, chain 1 of 2): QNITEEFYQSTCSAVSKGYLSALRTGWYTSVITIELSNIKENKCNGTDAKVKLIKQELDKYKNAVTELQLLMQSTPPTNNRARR
Sequence of RSV protein F (fusion glycoprotein), recombinant or purified (P03420 137-524, chain 2 of 2): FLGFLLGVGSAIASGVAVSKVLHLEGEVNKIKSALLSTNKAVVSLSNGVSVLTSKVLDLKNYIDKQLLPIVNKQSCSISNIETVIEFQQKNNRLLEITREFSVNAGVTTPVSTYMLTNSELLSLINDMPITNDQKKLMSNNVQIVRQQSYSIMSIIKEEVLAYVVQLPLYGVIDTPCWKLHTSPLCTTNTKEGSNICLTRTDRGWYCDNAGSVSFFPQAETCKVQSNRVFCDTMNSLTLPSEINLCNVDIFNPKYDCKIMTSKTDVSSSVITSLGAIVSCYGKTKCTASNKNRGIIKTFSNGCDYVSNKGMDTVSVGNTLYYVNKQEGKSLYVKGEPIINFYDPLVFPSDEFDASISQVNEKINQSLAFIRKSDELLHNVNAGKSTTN

B1: Fab fragment of antibody from clone 816 (Fab, V domains shown)
VH: EVQLLESGGGLVQPGGSLRLSCVASGFTFSTYAMTWVRQAPGKGLEWVSVIRASGDSEIYADSVRGRFTISRDNSKNTVFLQMDSLRVEDTAVYFCANIGQRRYCSGDHCYGHFDYWGQGTLVTVSS
VL: DIVMTQSPLSLPVTPGEPASISCRSSQSLLHSDGRYYVDWYLQKPGQSPHLLIYLASNRASGVPDRFTGSGSGTDFTLKISRVEAEDVGVYYCMQGLHTPWTFGQGTKVDIKR
Kd [1]: 0.09 nM
koff [1]: 0.000178 s⁻¹
kon [1]: 2.02e+06 M⁻¹ s⁻¹
t1/2 [1]: 1.08 h

B2: antibody from clone 816 (antibody, human IgG1, kappa, V domains shown)
VH: EVQLLESGGGLVQPGGSLRLSCVASGFTFSTYAMTWVRQAPGKGLEWVSVIRASGDSEIYADSVRGRFTISRDNSKNTVFLQMDSLRVEDTAVYFCANIGQRRYCSGDHCYGHFDYWGQGTLVTVSS
VL: DIVMTQSPLSLPVTPGEPASISCRSSQSLLHSDGRYYVDWYLQKPGQSPHLLIYLASNRASGVPDRFTGSGSGTDFTLKISRVEAEDVGVYYCMQGLHTPWTFGQGTKVDIKR
binding result [2]: no binding

B3: antibody from clone 856 (antibody, human IgG1, kappa, V domains shown)
VH: QVQLVQSGAEVKKPGASVKVSCKASGYTFSNYGFSWVRQAPGRGLEWMGWISAYNGNTYYAQNLQGRVTMTTDTSTTTAYMVLRSLRSDDTAMYYCARDGNTAGVDMWSRDGFDIWGQGTMVTVSS
VL: DIVMTQTPLSLPVTPGEPASISCRSSQSLLDSNDGNTYLDWYLQKPGQSPQLLIYTFSYRASGVPDRFSGSGSGTDFTLKISRVEAEDVGVYYCMQRIEFPYTFGQGTKLEIKR
binding result [2]: no binding

B4: Fab fragment of antibody from clone 796 (Fab, V domains shown)
VH: QVQLVESGGGVVQPGRSLRLSCAASGFSFSHFGMHWVRQVPGKGLEWVAIISYDGNNVHYADSVKGRFTISRDNSKNTLFLQMNSLRDDDTGVYYCAKDDVATDLAAYYYFDVWGRGTLVTVSS
VL: DIVMTQTPLSLSVTPGQPASISCRSSQSLLRSDGKTFLYWYLQKPGQSPQPLMYEVSSRFSGVPDRFSGSGSGADFTLNISRVETEDVGIYYCMQGLKIRRTFGPGTKVEIKR
notes: also called Fab clone 796; 796 (G)
Kd [1]: 0.48 nM
koff [1]: 0.000403 s⁻¹
kon [1]: 833000 M⁻¹ s⁻¹
t1/2 [1]: 0.478 h

B5: antibody from clone 793 (antibody, human IgG1, kappa, V domains shown)
VH: QVQLVESGGGLVKPGGSLRLSCAASGFPFGDYYMSWIRQAPGKGLEWVAYINRGGTTIYYADSVKGRFTISRDNAKNSLFLQMNSLRAGDTALYYCARGLILALPTATVELGAFDIWGQGTMVTVSS
VL: DIQMTQSPSSLSASVGDRVTITCRASQSITGYLNWYQQKPGKAPKLLIYATSTLQSEVPSRFSGSGSGTDFTLTISSLQPEDFATYYCQQSYNTLTFGGGTKVEIKR
EC50, PRNT with complement, RSV subtype A [3]: 2.52 µg/mL
binding result [2]: no binding

B6: antibody from clone 855 (antibody, human IgG1, kappa, V domains shown)
VH: QVQLVQSGPEVKKPGASVKVSCKASGYVLTNYAFSWVRQAPGQGLEWLGWISGSNGNTYYAEKFQGRVTMTTDTSTSTAYMELRSLRSDDTAVYFCARDLLRSTYFDYWGQGTLVTVSS
VL: DIQMTQSPSSVSASVGDRVTITCRASQAISNWLAWYQQKPGKAPKLLIYAASSLQSGVPSRFSGSGSGTDFTLTISGLQPEDFATYYCQQADTFPFTFGPGTKVDIKR
EC50, PRNT with complement, RSV subtype A [3]: 6.35 µg/mL
binding result [2]: no binding

B7: antibody from clone 853 (antibody, human IgG1, kappa, V domains shown)
VH: EVQLVQSGAEVKKPGQSLKISCKTSGYIFTNYWIGWVRQRPGKGLEWMGVIFPADSDARYSPSFQGQVTISADKSIGTAYLQWSSLKASDTAIYYCARPKYYFDSSGQFSEMYYFDFWGQGTLVTVSS
VL: EIVLTQSPGTLSLSPGERATLSCRASQSVSSNYLAWYQQKPGQAPRLLIYGASSRAAGMPDRFSGSGSGTDFTLTISRLEPEDFAVYYCQQYGNSPLTFGGGTEVEIKR
EC50, PRNT with complement, RSV subtype A [3]: 1.49 µg/mL
binding result [2]: no binding

B8: Fab fragment of antibody from clone 853 (Fab, V domains shown)
VH: EVQLVQSGAEVKKPGQSLKISCKTSGYIFTNYWIGWVRQRPGKGLEWMGVIFPADSDARYSPSFQGQVTISADKSIGTAYLQWSSLKASDTAIYYCARPKYYFDSSGQFSEMYYFDFWGQGTLVTVSS
VL: EIVLTQSPGTLSLSPGERATLSCRASQSVSSNYLAWYQQKPGQAPRLLIYGASSRAAGMPDRFSGSGSGTDFTLTISRLEPEDFAVYYCQQYGNSPLTFGGGTEVEIKR
notes: also called Fab clone 853; 853 (G)
Kd [1]: 0.79 nM
koff [1]: 0.0014 s⁻¹
kon [1]: 1.77e+06 M⁻¹ s⁻¹
t1/2 [1]: 0.138 h

B9: antibody from clone 888 (antibody, human IgG1, kappa, V domains shown)
VH: QLQLQESGPGLVKPSETLSLTCTASGGSINSSNFYWGWIRQPPGKGLEWIGSIFYSGTTYYNPSLKSRVTISVDTSKNQFSLKLSPVTAADTAVYHCARHGFRYCNNGVCSINLDAFDIWGQGTMVTVSS
VL: DIVMTQSPLSLPVTPGAPASISCRSSQSLLRTNGYNYLDWYLQKPGQSPQLLIYLGSIRASGVPDRFSGSGSGTDFTLKISRVEAEDVGVYYCMQSLQTSITFGQGTRLEIKR
EC50, PRNT with complement, RSV subtype A [3]: 0.14 µg/mL
binding result [2]: no binding

B10: antibody from clone 835 (antibody, human IgG1, kappa, V domains shown)
VH: QVQLVQSGAEVKRPGASVKVSCKASGYTFISYGFSWVRQAPGQGLEWMGWSSVYNGDTNYAQKFHGRVNMTTDTSTNTAYMELRGLRSDDTAVYFCARDRNVVLLPAAPFGGMDVWGQGTMVTVSS
VL: DIQLTQSPSFLSASLEDRVTITCRASQGISSYLAWYQQKPGKAPKLLLDAASTLQSGVPSRFSGSGSGTEFTLTISSLQPEDFATYYCQQLNSYPRTFGQGTKVDIKR
binding result [2]: no binding

B11: Fab fragment of antibody from clone 811 (Fab, V domains shown)
VH: QVQLVQSGAVVETPGASVKVSCKASGYIFGNYYIHWVRQAPGQGLEWMAVINPNGGSTTSAQKFQDRITVTRDTSTTTVYLEVDNLRSEDTATYYCARQRSVTGGFDAWLLIPDASNTWGQGTMVTVSS
VL: DIVMTQSPDSLAVSLGERATINCRSSETVLYTSKNQSYLAWYQQKARQPPKLLLYWASTRESGVPARFSGSGSGTDFTLAISSLQAEDVAVYYCQQFFRSPFTFGPGTRLEIKR
notes: also called Fab clone 811; 811 (G)
Kd [1]: 0.34 nM
koff [1]: 0.000171 s⁻¹
kon [1]: 498000 M⁻¹ s⁻¹
t1/2 [1]: 1.13 h

B12: Fab fragment of antibody from clone 838 (Fab, V domains shown)
VH: QVQLVESGGGVVQPGTSLRLSCAASGFTFSTFGMHWVRQAPGKGLEWVAVISYDGNKKYYADSVKGRFTISRDNSKNTLYLQVNSLRVEDTAVYYCAAQTPYFNESSGLVPDWGQGTLVTVSS
VL: DIQMTQSPSSLSASVGDRVSITCRASQGISNYLAWYQQKPGKVPKLLIYAASTLQSGVPSRFSGSGSGTDFTLTISSLQPEDVATYYCQKYNSAPQTFGQGTKVEIKR
notes: also called Fab clone 838; 838 (G)
Kd [1]: 0.19 nM
koff [1]: 5.06e-05 s⁻¹
kon [1]: 264000 M⁻¹ s⁻¹
t1/2 [1]: 3.83 h

B13: Fab fragment of antibody from clone 859 (Fab, V domains shown)
VH: QVQLVESGGGVVQPGRSLRLSCAVSGSSFSKYGIHWVRQAPGKGLEWVAVISYDGSKKYFTDSVKGRFTIARDNSQNTVFLQMNSLRAEDTAVYYCATGGGVNVTSWSDVEHSSSLGYWGLGTLVTVSS
VL: DIQMTQSPSSLSASVGDRVTITCRASQGIRNYLAWYQQKPGKVPKLLVFAASTLQSGVPSRFSGSGSGTDFTLTISSLQPEDVATYYCQRYNSAPLTFGGGTKVEIKR
notes: also called Fab clone 859; 859 (G)
Kd [1]: 0.12 nM
koff [1]: 4.63e-05 s⁻¹
kon [1]: 380000 M⁻¹ s⁻¹
t1/2 [1]: 4.17 h

B14: antibody from clone 841 (antibody, human IgG1, kappa, V domains shown)
VH: QVQLVQSGAEVKKPGASVKVSCKASGYTFISFGISWVRQAPGQGLEWMGWISAYNGNTDYAQRLQDRVTMTRDTATSTAYLELRSLKSDDTAVYYCTRDESMLRGVTEGFGPIDYWGQGTLVTVSS
VL: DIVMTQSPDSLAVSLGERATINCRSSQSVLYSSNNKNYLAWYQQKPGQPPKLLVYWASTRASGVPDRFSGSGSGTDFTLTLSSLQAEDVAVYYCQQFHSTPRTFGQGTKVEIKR
binding result [2]: no binding

B15: Palivizumab (antibody, V domains shown)
VH: QVTLRESGPALVKPTQTLTLTCTFSGFSLSTSGMSVGWIRQPPGKALEWLADIWWDDKKDYNPSLKSRLTISKDTSKNQVVLKVTNMDPADTATYYCARSMITNWYFDVWGAGTTVTVSS
VL: DIQMTQSPSTLSASVGDRVTITCKCQLSVGYMHWYQQKPGKAPKLLIYDTSKLASGVPSRFSGSGSGTEFTLTISSLQPDDFATYYCFQGSGYPFTFGGGTKLEIK
EC50, PRNT with complement, RSV subtype A [4]: 0.14 µg/mL
